Measured values taken from patent US20060188503A1 (Genentech, published 2006).
Positions count from the first letter of the chain named. Names may count otherwise.

B1: LK-VRB-1s* (ligand)
chain: APMAEGGGQNHHEVVKFEDVLRRSSCHPIETLVDIFQEYPDEIEYIFKPSCVPLMRCGGCCNDEGLECVPTEESNITMQIMRIKPHQGQHIGEMSFLQHNKCECRPKKD
B2: LK-VRB-4s (ligand)
chain: B1 chain with F17I, L21F, R22E, S25I
notes: the codon printed for Y25I is CAC (His)
B3: LK-VRB-3s (ligand)
chain: B1 chain with F17I, L21F, R22K
B4: LK-VRB-8s* (ligand)
chain: B1 chain with E18M, R22Q, S25Y, D63S, G65M, L66R
notes: 'Y2IL' read as Y21L (codon CTC)
B5: LK-VRB-7s* (ligand)
chain: B1 chain with L21Y, R22Q, S25Y, D63S, G65M, L66R
B6: LK-VRB-9s (ligand)
chain: B1 chain with E18M, L21Y, S25Y, D63S, G65M, L66R
B7: LK-VRB-19s (ligand)
chain: B1 chain with L21Y, D63S, G65M, L66R
B8: LK-VRB-13s (ligand)
chain: B1 chain with L21Y, R22Q, D63S, G65M, L66R
B9: LK-VRB-16s (ligand)
chain: B1 chain with E18M, L21Y, D63S, G65M, L66R
B10: LK-VRB-12s (ligand)
chain: B1 chain with L21Y, S25Y, D63S, G65M, L66R
B11: LK-VRB-17s (ligand)
chain: B1 chain with S25Y, D63S, G65M, L66R
B12: LK-VRB-25s (ligand)
chain: B1 chain with D63S, L66R
B13: LK-VRB-22s (ligand)
chain: B1 chain with G65M
B14: LK-VRB-10s (ligand)
chain: B1 chain with E18M, L21Y, R22Q, D63S, G65M, L66R
B15: LK-VRB-15s (ligand)
chain: B1 chain with E18M, R22Q, D63S, G65M, L66R
B16: LK-VRB-14s (ligand)
chain: B1 chain with E18M, S25Y, D63S, G65M, L66R
B17: LK-VRB-11s (ligand)
chain: B1 chain with R22Q, S25Y, D63S, G65M, L66R
B18: LK-VRB-26s (ligand)
chain: B1 chain with G65M, L66R
B19: LK-VRB-20s (ligand)
chain: B1 chain with E18M, D63S, G65M, L66R
B20: LK-VRB-23s (ligand)
chain: B1 chain with L66R
B21: LK-VRB-21s (ligand)
chain: B1 chain with D63S
B22: LK-VRB-24s (ligand)
chain: B1 chain with D63S, G65M
B23: Native VEGF (8-109) (ligand)
chain: GQNHHEVVKFMDVYQRSYCHPIETLVDIFQEYPDEIEYIFKPSCVPLMRCGGCCNDEGLECVPTEESNITMQIMRIKPHQGQHIGEMSFLQHNKCECRPKKD

The binders below were run against KDR receptor with a gD tag at the N-terminus, on CHO cells (UniProt P35968 20-1356) (assay: cell-based or functional assay).
B1 was tested, and the “Phosphorylation-Inducing Activity (KIRA), ratio to native VEGF (8-109)” value was 0.5 fold. In the case of B2, the “Phosphorylation-Inducing Activity (KIRA), ratio to native VEGF (8-109)” value is reported as 0.5 fold. In the case of B3, the “Phosphorylation-Inducing Activity (KIRA), ratio to native VEGF (8-109)” value is reported as 1 fold.

These binders were tested against KDR receptor on human umbilical vein endothelial cells (HUVEC) (human, UniProt P35968 20-1356) (assay: cell-based or functional assay).
KDR receptor on human umbilical vein endothelial cells (HUVEC), sequence (P35968 20-1356): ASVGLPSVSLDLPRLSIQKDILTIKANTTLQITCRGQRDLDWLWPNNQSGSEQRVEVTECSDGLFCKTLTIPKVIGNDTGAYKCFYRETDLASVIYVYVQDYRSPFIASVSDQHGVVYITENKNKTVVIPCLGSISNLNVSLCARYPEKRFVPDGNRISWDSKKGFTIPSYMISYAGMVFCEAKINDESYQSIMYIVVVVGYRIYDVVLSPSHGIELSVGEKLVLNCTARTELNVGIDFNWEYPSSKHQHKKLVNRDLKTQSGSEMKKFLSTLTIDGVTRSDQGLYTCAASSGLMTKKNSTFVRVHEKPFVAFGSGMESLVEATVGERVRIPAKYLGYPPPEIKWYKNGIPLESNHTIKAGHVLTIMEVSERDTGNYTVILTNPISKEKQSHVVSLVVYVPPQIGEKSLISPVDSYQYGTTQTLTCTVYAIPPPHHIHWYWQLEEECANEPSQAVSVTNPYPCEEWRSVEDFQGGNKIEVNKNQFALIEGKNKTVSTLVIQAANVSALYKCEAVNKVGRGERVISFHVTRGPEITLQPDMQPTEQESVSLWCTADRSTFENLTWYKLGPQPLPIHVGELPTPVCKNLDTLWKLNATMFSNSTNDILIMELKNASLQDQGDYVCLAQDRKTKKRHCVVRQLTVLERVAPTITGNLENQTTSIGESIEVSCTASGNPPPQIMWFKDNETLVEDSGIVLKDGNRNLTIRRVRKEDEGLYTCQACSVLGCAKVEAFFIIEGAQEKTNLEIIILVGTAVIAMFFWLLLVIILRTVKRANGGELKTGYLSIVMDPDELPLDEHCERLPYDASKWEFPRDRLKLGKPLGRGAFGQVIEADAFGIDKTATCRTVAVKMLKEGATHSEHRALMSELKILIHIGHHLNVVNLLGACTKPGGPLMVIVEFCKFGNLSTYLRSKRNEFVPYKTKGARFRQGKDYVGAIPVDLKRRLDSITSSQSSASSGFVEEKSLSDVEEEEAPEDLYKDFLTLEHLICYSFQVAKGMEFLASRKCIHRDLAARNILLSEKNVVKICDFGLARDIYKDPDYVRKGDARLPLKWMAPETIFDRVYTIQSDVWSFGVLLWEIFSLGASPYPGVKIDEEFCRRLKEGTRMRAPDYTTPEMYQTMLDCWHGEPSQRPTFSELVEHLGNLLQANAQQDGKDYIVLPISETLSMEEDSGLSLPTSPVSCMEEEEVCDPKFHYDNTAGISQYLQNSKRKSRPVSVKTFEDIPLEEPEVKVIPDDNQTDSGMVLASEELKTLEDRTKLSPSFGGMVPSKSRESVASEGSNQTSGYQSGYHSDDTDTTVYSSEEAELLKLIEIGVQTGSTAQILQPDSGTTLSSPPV
B1 was tested, and the “Endothelial Cell Proliferation Activity (HUVEC), ratio to native VEGF (8-109)” value was 0.2 fold. For B4, the “Endothelial Cell Proliferation Activity (HUVEC), ratio to native VEGF (8-109)” value was 1 fold. B5 was tested, and the “Endothelial Cell Proliferation Activity (HUVEC), ratio to native VEGF (8-109)” value was 1 fold.

The binders below were run against KDR Receptor (RIA of Example 11) (UniProt P35968 20-764, limits assumed) (assay: RIA, essentially as in Muller et al. 1997).
KDR Receptor (RIA of Example 11), sequence (P35968 20-764 limits assumed): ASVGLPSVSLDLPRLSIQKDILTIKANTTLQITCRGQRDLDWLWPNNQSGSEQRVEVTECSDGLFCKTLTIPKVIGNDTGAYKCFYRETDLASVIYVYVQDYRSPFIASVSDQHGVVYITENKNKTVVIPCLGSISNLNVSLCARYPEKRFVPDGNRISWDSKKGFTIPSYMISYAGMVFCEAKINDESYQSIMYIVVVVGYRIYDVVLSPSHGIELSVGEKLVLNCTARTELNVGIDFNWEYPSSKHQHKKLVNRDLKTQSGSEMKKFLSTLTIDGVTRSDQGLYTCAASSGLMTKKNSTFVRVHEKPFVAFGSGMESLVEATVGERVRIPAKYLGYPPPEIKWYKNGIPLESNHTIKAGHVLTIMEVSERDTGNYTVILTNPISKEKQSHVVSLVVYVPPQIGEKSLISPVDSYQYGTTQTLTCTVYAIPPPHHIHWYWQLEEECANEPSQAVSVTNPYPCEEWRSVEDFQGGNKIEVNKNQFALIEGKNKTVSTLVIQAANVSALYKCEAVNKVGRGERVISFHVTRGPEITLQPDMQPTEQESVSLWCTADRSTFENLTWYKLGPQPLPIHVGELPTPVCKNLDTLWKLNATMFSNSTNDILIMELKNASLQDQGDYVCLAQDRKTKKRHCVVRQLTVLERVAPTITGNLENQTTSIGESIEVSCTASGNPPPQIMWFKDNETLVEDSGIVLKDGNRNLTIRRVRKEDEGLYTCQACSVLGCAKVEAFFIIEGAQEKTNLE
For B1, the “relative binding affinity (ratio to native VEGF 165)” value was 20 fold.

What follows are binders tested against FLT-1 Receptor (RIA of Example 11) (UniProt P17948 27-758, limits assumed) (assay: RIA, essentially as in Muller et al. 1997).
FLT-1 Receptor (RIA of Example 11), sequence (P17948 27-758 limits assumed): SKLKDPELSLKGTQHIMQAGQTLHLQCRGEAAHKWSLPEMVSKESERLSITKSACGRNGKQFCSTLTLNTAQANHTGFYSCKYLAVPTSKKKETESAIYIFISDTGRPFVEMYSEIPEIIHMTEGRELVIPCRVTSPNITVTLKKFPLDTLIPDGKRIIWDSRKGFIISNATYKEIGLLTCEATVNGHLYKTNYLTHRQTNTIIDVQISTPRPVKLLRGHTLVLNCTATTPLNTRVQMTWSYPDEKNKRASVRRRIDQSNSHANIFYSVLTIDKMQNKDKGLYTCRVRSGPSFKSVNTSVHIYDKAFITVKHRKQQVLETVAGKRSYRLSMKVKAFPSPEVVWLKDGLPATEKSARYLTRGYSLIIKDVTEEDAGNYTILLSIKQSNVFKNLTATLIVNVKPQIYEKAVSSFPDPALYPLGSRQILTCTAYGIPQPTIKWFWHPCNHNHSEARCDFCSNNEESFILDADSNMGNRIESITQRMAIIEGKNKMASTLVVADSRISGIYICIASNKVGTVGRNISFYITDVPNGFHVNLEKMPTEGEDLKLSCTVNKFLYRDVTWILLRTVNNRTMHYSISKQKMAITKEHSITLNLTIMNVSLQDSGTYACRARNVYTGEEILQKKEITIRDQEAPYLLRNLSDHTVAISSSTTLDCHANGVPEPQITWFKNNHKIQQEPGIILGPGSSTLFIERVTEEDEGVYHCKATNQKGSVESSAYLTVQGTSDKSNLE
For B1, the “relative binding affinity (ratio to native VEGF 165)” value was 14000 fold.

These binders were tested against T1, Flt-IgG (a chimeric Flt-human Fc molecule) (human, UniProt P17948 27-758, limits assumed) (assay: competition ELISA: displacement of biotinylated native VEGF from Flt-IgG).
T1 construct: not shown: human IgG Fc
T1 sequence (P17948 27-758 limits assumed, change not shown): as the sequence (P17948 27-758 limits assumed) above
Method: The wells were filled with 100 μl of a solution containing Flt-IgG (a chimeric Flt-human Fc molecule) at 50 ng/ml in assay buffer (0.5% BSA, 0.05% Tween 20 in PBS). The wells were incubated at room temperature for 1 hour and then washed three times in wash buffer (0.05% Tween 20 in PBS).
Aliquots of the mixture (100 μl) were added to the precoated microtiter wells and the plate was incubated for 2 hours at room temperature. […] The wells were then incubated with […] (0.2 g/liter, Kirkegaard & Perry Laboratories, Gaithersburg, Md.) for about 10 minutes at room temperature. Absorbance was read at 450 nm on a Vmax plate reader (Molecular Devices, Menlo Park, Calif.).
(§1) Titration curves were fit with a four-parameter nonlinear regression curve-fitting program (KaleidaGraph, Synergy Software, Reading, Pa.).
With B1 the “relative binding affinity (ratio to native VEGF (8-109))” value was 6000 fold. B6 was tested, and the “relative binding affinity (ratio to native VEGF (8-109))” value was 300 fold. With B2 the “relative binding affinity (ratio to native VEGF (8-109))” value was 200 fold. With B3 the “relative binding affinity (ratio to native VEGF (8-109))” value was 400 fold.

These binders were tested against T2, KDR (1-3) (UniProt P35968 20-327, limits assumed) (assay: competition ELISA: displacement of biotinylated native VEGF (8-109) from KDR (1-3)).
T2 construct: domain: KDR (1-3); Soluble KDR (1-3) at 1 ug/ml, captured on anti-KDR antibody MAKD5; also called KDR (1-3) monomer
T2 sequence (P35968 20-327 limits assumed): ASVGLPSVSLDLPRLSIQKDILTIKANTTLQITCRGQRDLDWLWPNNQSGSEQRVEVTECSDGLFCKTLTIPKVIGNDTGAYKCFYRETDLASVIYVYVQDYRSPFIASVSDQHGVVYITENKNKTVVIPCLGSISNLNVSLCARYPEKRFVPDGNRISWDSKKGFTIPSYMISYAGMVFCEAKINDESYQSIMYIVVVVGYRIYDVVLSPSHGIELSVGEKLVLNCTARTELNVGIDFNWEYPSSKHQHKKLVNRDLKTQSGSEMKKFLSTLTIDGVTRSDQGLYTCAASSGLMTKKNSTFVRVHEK
Method: (§2) Aliquots of this mixture (100 μl) were added to the precoated microtiter wells and the plate was incubated for 1 hour at room temperature.
(§3) The wells were then incubated with 3,3′,5,5′-tetramethyl benzidine (0.2 gram/liter; Kirkegaard & Perry Laboratories, Gaithersburg, Md.) for about 10 minutes at room temperature. Absorbance was read at 450 nm on a Vmax plate reader (Molecular Devices, Menlo Park, Calif.).
as §1
In the case of B1, the “relative binding affinity (ratio to native VEGF (8-109))” value is reported as 1 fold. In the case of B7, the “relative binding affinity (ratio to native VEGF (8-109))” value is reported as 7 fold. B8 was tested, and the “relative binding affinity (ratio to native VEGF (8-109))” value was 14 fold. With B9 the “relative binding affinity (ratio to native VEGF (8-109))” value was 0.6 fold. B4 was tested, and the “relative binding affinity (ratio to native VEGF (8-109))” value was 0.5 fold. With B10 the “relative binding affinity (ratio to native VEGF (8-109))” value was 0.4 fold. In the case of B6, the “relative binding affinity (ratio to native VEGF (8-109))” value is reported as 0.5 fold. For B11, the “relative binding affinity (ratio to native VEGF (8-109))” value was 3 fold. B12 was tested, and the “relative binding affinity (ratio to native VEGF (8-109))” value was 4 fold. B13 was tested, and the “relative binding affinity (ratio to native VEGF (8-109))” value was 4 fold. B14 was tested, and the “relative binding affinity (ratio to native VEGF (8-109))” value was 0.5 fold. With B15 the “relative binding affinity (ratio to native VEGF (8-109))” value was 2 fold. For B16, the “relative binding affinity (ratio to native VEGF (8-109))” value was 0.5 fold. B17 was tested, and the “relative binding affinity (ratio to native VEGF (8-109))” value was 2 fold. For B18, the “relative binding affinity (ratio to native VEGF (8-109))” value was 23 fold. In the case of B19, the “relative binding affinity (ratio to native VEGF (8-109))” value is reported as 2 fold. With B2 the “relative binding affinity (ratio to native VEGF (8-109))” value was 1 fold. With B20 the “relative binding affinity (ratio to native VEGF (8-109))” value was 11 fold. With B21 the “relative binding affinity (ratio to native VEGF (8-109))” value was 3 fold. For B5, the “relative binding affinity (ratio to native VEGF (8-109))” value was 1 fold. For B3, the “relative binding affinity (ratio to native VEGF (8-109))” value was 1 fold. With B22 the “relative binding affinity (ratio to native VEGF (8-109))” value was 10 fold.

Each binder was assayed against T2, KDR (1-3) (assay: competition ELISA: displacement of biotinylated native VEGF (8-109) from KDR (1-3); concentration at midpoint absorbance).
Method: as §2, §3, §1
Binder B7 has an IC50 of 7 nM.

Each binder was assayed against T2, KDR (1-3) (assay: competition ELISA (Example 7): serially diluted unlabelled native VEGF (8-109) incubated with biotinylated native VEGF (8-109) (84 nM) and KDR (1-3) (1 ug/ml), complex captured on anti-KDR antibody MAKD5, detected with peroxidase-streptavidin, OD 450).
Method: as §2, §3, §1
B23 was tested, and the “IC50 (read off the curve)” value was roughly 2 nM.
